Experiment [1] addresses IL-10R subtype I, which consists of an IL-10R1 and an IL-10R2 (human) (UniProt Q13651). The experiment is described as follows: cell-based or functional assay.
The target of a further experiment is IL-10R1 (human) (UniProt Q13651). The experiment is described as follows: cell-based or functional assay.

The source of these data is patent US20030022827A1.

Chain of IL-10R subtype I, which consists of an IL-10R1 and an IL-10R2 (human) (Q13651 22-578, chain 1 of 2): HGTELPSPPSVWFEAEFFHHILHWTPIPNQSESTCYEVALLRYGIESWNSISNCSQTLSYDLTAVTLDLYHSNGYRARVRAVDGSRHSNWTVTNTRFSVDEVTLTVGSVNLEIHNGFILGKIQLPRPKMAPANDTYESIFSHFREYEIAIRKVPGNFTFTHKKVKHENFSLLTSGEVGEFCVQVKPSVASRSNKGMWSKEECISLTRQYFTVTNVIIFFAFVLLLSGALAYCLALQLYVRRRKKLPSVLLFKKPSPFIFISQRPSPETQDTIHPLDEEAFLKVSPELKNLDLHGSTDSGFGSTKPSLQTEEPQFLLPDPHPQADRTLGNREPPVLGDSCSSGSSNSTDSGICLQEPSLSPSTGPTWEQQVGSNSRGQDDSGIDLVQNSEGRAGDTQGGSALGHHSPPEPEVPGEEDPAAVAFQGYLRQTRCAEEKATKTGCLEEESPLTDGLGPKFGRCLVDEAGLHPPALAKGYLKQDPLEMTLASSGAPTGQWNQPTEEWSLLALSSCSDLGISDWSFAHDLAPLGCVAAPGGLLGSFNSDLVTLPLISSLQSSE
Chain of IL-10R subtype I, which consists of an IL-10R1 and an IL-10R2 (human) (Q08334 20-325, chain 2 of 2, further chain): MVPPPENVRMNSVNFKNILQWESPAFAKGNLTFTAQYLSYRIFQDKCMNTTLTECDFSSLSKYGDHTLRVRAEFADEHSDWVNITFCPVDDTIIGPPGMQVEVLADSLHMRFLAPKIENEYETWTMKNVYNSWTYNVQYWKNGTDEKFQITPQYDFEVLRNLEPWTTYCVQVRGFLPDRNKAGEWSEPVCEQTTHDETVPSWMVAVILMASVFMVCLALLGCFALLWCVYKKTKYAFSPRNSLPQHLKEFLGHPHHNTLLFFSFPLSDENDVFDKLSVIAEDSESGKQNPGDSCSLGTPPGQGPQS
Chain of IL-10R1 (human) (Q13651 22-578): as the sequence (Q13651 22-578, chain 1 of 2) above

In turn, “Epstein-Barr virus-coded protein BCRF1 (from UniProt P03180 24-170) (ligand)” displayed an expression of the low-affine IgG receptor CD16 on monocytes (flow cytometry) in experiment [1] of 30 to 100 ng/mL. The same substance gave an inhibition of LPS-induced TNF-α release of PBMC (ELISA of supernatant) with IL-10R1 (human) of 3 ng/mL.
